In data set [1] the target is T1, PpbHLH1 (Prunus persica, UniProt M5W438 1-344). The experiment in a line: competition.
Data set [2] deals with T1, PpbHLH1. The experiment in a line: EMSA. (A gel shift assay detects complexes by their altered migration in electrophoresis.)

B1: Probe1 unlabelled (cold competitor) (dsDNA)
DNA 1: TGAAATGATGATAAGCACATGGATATATGGCCTGGAAAAC
DNA 2: GTTTTCCAGGCCATATATCCATGTGCTTATCATCATTTCA
Regarding B1, the binding result with PpbHLH1 [1] was “binds”.

B2: Mutant-Probe1 (dsDNA)
DNA 1: TGAAATGATGATAAGAGTGGAGATATATGGCCTGGAAAAC
DNA 2: GTTTTCCAGGCCATATATCTCCACTCTTATCATCATTTCA
As for B2, the binding result with PpbHLH1 [2] is reported as “no binding”.

The values are drawn from PMC8486240.
